Here are results for two molecules from publication PMC4459817, “Vasculotide reduces endothelial permeability and tumor cell extravasation in the absence of binding to or agonistic activation of Tie2” (EMBO Molecular Medicine, 2015).

For experiment [1], the target named is T1, mouse Tie2-Fc (mTie2-Fc) (Mus musculus, UniProt Q02858).
T1 construct: Purified human or mouse Tie2-Fc (i.e., Fc-conjugated extracellular domains of Tie2); purchased R&D Systems 762-T2-100
The experiment is described as follows: SPR binding to mouse Tie2-Fc. The conditions noted are these: mouse Tie2-Fc (low- and high-density), 37°C, pH 7.4, Supplementary Fig S3, listed as VT. An excerpt: To better understand the difficulties we had in observing Tie2 activation by VT, we sought to characterize the binding affinity and kinetics of VT to Tie2. Purified human or mouse Tie2-Fc (i.e., Fc-conjugated extracellular domains of Tie2) were first coupled to protein A sepharose beads for pull-down experiments (Fig9A and B) or immobilized on a Biacore CM5 sensor chip for surface plasmon resonance (SPR) experiments (Fig9C and Supplementary Fig S3). […]
9. Tie2 Receptor-Binding Assays
Vasculotide (VT) was manufactured by Bachem UK Ltd. T7c (CHHHRHSF) was synthesized by Genscript (Piscataway, NJ, USA). PEG-Cys consists of a single cysteine reacted to each of the 4 arms of PEG-maleimide (Sunbright PTE-100MA, NOF Corporation, Tokyo, Japan). BowAng1 (Ang1-Fd-Fc-Fd) was made and provided by Regeneron Pharmaceuticals, Inc. (Tarrytown, NY, USA). COMP-Ang1 was purified in the Kerbel lab from serum-free culture media conditioned by an engineered CHO cell line provided by Dr. Gou Young Koh (KAIST), according to published protocols (Hwang et al, 2008).
Recombinant human Angiopoietin-1 (rhAng1) and Vascular Endothelial Growth Factor ( rhVEGF) were […]
purchased from R&D Systems. […]
(structural/molecular weight control for VT), and 40 μL of supernatant (7% of residual/unbound ligand) – were similarly boiled in SDS sample buffer. […]
Binding analysis were performed by exposure of immobilized mTie2-Fc to the analytes diluted in HBS-EP (0.01M HEPES pH 7.4, 0.15M NaCl, 3mM EDTA, 0.005% v/v Tween-20), which was supplemented with 1mg/mL carboxymethyl dextran (NSB reducer, GE Healthcare) to reduce non-specific binding to the sensor chip. […] To quantitatively determine the kinetic properties of the interaction (KD, kd, ka) and avoid mass transport limitations, mTie2-Fc and hTie2-Fc were immobilized at low density (1,000-1,200RU) onto separate flow cells of the CM5 chip using amine coupling chemistry. […] All data were analysed using BIA Evaluation Software 2.0 (GE Healthcare) to calculate kd, ka and KD using the 1:1 ligand binding model. […]
On the technique in general: SPR reads the build-up and loss of mass on a sensor chip optically.

Experiment [2] deals with T2, human Tie2-Fc (Fc-conjugated extracellular domain of Tie2) (human, UniProt Q02763 23-748).
T2 construct: Tie2 receptor tyrosine kinase, human, extracellular domain; the supplementary Materials and Methods may tell them; also called hTie2-Fc; hTie2; source: purified
The experiment is described as follows: pull-down; purified human or mouse Tie2-Fc coupled to protein A sepharose beads; input ligand (rhAng1 or VT) incubated with the beads; bound and unbound fractions compared; beads only as control. Particulars: both partners purified.

For experiment [3], the target named is T3, mouse Tie2-Fc (Fc-conjugated extracellular domain of Tie2) (mouse, UniProt Q02858 23-746).
T3 construct: Tie2 receptor tyrosine kinase, mouse, extracellular domain; the supplementary Materials and Methods may tell them; also called mTie2-Fc; mTie2; source: purified
The experiment is described as above. Particulars: both partners purified.

T1 sequence (Q02858 23-746 limits assumed): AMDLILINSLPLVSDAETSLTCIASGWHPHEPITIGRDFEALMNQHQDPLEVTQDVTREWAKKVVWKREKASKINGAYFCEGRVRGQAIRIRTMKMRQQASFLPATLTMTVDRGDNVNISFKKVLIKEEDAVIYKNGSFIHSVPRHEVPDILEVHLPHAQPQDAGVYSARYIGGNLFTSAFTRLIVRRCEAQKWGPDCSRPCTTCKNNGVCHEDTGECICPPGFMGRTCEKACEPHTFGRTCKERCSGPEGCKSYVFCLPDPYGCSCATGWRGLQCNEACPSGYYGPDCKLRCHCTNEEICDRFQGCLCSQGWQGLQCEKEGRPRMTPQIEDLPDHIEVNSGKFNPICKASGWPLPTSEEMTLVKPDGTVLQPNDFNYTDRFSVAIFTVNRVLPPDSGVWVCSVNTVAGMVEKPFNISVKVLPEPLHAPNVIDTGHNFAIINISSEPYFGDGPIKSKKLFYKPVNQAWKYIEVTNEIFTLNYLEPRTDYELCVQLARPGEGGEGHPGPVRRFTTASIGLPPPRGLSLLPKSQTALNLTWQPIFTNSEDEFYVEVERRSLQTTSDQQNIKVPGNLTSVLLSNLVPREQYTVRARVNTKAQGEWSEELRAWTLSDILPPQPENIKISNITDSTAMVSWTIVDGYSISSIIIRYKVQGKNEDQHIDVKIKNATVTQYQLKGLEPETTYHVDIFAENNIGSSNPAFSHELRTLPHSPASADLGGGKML

In the case of “CHHHRHSF [Vasculotide, 4-armed maleimide-functionalized polyethylene glycol (PEG) backbone to link together four cysteine-capped T7 peptides, that is, CHHHRHSF]”, the “binding to Tie2-Fc” value in experiment [1] is listed as “no binding to Tie2-Fc was detectable”.

B1: recombinant human Ang1 (rhAng1) (ligand, UniProt Q15389 16-498, looked up)
chain: HIGCSNQRRSPENSGRRYNRIQHGQCAYTFILPEHDGNCRESTTDQYNTNALQRDAPHVEPDFSSQKLQHLEHVMENYTQWLQKLENYIVENMKSEMAQIQQNAVQNHTATMLEIGTSLLSQTAEQTRKLTDVETQVLNQTSRLEIQLLENSLSTYKLEKQLLQQTNEILKIHEKNSLLEHKILEMEGKHKEELDTLKEEKENLQGLVTRQTYIIQELEKQLNRATTNNSVLQKQQLELMDTVHNLVNLCTKEGVLLKGGKREEEKPFRDCADVYQAGFNKSGIYTIYINNMPEPKKVFCNMDVNGGGWTVIQHREDGSLDFQRGWKEYKMGFGNPSGEYWLGNEFIFAITSQRQYMLRIELMDWEGNRAYSQYDRFHIGNEKQNYRLYLKGHTGTAGKQSSLILHGADFSTKDADNDNCMCKCALMLTGGWWFDACGPSNLNGMFYTAGQNHGKLNGIKWHYFKGPSYSLRSTTMMIRPLDF
notes: angiopoietin-1, human, recombinant; also called angiopoietin-1; source: bought: R&D Systems (named for the Boyden chamber experiments)
On to B1, for which the binding result in experiment [2] and in experiment [3] was “binds” throughout.
